In CN116710484A (MYLINGENE INC, dated 2023):

What was measured:
[1] = molecular target: T1, human recombinant WARS1 protein (tryptophanyl-tRNA synthetase 1) (human, UniProt P23381 1-471, limits assumed); experiment: SPR, Biacore T200, CM5 chip
T1 construct: Recombinant protein; also called 人WARS1; 人重组蛋白
T1 sequence (looked up): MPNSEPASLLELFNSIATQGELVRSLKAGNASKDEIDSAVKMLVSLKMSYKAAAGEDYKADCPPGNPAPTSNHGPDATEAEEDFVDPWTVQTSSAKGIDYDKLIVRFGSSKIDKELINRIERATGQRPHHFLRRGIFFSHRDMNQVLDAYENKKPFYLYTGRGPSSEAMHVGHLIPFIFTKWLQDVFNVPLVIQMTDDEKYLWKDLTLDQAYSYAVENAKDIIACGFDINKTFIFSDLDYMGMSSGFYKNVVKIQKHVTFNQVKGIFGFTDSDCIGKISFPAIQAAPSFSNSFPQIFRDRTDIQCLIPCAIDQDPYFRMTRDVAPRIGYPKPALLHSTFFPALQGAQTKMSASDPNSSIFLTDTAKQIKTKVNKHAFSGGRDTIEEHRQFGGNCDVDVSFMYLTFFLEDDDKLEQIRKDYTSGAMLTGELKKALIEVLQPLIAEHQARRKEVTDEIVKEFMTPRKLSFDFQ

[2] = molecular target: T2, mouse recombinant WARS1 protein (mouse, UniProt P32921 1-481, limits assumed); experiment: SPR, Biacore T200, CM5 chip
T2 construct: Recombinant protein; also called 小鼠WARS1; 小鼠重组蛋白
T2 sequence (looked up): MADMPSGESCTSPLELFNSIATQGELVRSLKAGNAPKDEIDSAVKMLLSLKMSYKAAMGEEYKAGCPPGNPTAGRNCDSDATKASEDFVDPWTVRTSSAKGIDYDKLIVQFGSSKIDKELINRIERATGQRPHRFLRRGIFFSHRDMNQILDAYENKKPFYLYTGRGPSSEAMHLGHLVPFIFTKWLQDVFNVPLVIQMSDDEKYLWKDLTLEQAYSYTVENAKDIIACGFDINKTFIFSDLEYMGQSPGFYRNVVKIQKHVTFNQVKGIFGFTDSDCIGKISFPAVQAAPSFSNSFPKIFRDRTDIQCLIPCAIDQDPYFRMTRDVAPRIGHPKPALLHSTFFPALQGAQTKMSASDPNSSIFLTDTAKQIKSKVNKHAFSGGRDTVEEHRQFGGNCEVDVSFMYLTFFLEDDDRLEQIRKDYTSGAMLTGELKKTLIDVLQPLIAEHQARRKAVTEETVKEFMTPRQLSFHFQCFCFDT

B1: GKB101 (antibody, V domains shown)
VH: EVQLLESGGGLVQPGGSLRLSCAASGFTFSSYDMSWVRQAPGKGLEWVSAISSGGSSIYYADSVKGRFTISRDNSKNTLYLQMNSLRAEDTAVYYCARDVAWDMLGDFDYWGQGTLVTVSS
VL: QSVLTQPPSASGTPGQRVTISCTGSSSNIGSNYVYWYQQLPGTAPKLLIYANSHRPSGVPDRFSGSKSGTSASLAISGLRSEDEADYYCGAWDDSLSAYVFGGGTKLTV
notes: also called WARS1特异性抗体; 抗WARS1抗体
- Kd [1]: ~0.2 nM
- Kd [2]: ~3.76 nM
